In the assay the target is T1, Notch1 (Mus musculus, UniProt Q01705).
T1 construct: expressed in transfected cells; host or cells: human kidney 293T cells, transient transfection (LT-1 liposomes)
As to the kind of experiment: Notch1 processing assay in human kidney 293T cells. It is filed as cell-based. The settings on record: co-expression with Notch1 and Jagged-1 in 293T cells. The method, then:
To monitor the effects of MAGP-2 on the processing and S3 cleavage of Notch1, human kidney 293T cells were transiently transfected in 6-well plates with LT-1 liposomes containing 0.5 μg/well of Notch1 (pCS2+mN1FL6MT), 0.5 μg/well Jagged-1 (pCS2+Jag1-6MT), or 1.5 μg/well of MAGP-2 (pcDNA3.1-MAGP-2/Myc-His) in all combinations. Forty-eight h post-transfection, the cells were washed with ice-cold PBS, lysed immediately in Buffer H/1% Triton X-100 [500 μl/well; (Schiemann et al, 2002)], and incubated on ice for 30 min. Afterward, insoluble material was removed by microcentrifugation and 100 μl of the resulting clarified extract was fractionated through 6% SDS-PAGE gels. The fractionated proteins were transferred electrophoretically to nitrocellulose and probed with anti-Myc 9E10 monoclonal antibodies (Covance, Princeton, N.J.) to visual Notch1 cleavage species.
Activation of Notch1 signaling involves three proteolytic processing events, termed S1, S2, and S3, that produce three distinct Notch1 fragments, termed TMIC, NEXT, and NICD, respectively (Mumm et al, 2000). […] The inventors tested this possibility by transiently transfecting human 293T cells with cDNAs encoding Myc-tagged versions of Notch1, Jagged-1, and MAGP-2 in all combinations, and subsequently monitored changes in NICD production and accumulation by immunoblot analyses using anti-Myc monoclonal antibodies. […]

Experimental findings from patent publication US8629107B2, “Genes and proteins associated with angiogenesis and uses thereof” (National Jewish Health, priority 2005, dated 2014) are described below.

T1 sequence (Q01705 19-2531): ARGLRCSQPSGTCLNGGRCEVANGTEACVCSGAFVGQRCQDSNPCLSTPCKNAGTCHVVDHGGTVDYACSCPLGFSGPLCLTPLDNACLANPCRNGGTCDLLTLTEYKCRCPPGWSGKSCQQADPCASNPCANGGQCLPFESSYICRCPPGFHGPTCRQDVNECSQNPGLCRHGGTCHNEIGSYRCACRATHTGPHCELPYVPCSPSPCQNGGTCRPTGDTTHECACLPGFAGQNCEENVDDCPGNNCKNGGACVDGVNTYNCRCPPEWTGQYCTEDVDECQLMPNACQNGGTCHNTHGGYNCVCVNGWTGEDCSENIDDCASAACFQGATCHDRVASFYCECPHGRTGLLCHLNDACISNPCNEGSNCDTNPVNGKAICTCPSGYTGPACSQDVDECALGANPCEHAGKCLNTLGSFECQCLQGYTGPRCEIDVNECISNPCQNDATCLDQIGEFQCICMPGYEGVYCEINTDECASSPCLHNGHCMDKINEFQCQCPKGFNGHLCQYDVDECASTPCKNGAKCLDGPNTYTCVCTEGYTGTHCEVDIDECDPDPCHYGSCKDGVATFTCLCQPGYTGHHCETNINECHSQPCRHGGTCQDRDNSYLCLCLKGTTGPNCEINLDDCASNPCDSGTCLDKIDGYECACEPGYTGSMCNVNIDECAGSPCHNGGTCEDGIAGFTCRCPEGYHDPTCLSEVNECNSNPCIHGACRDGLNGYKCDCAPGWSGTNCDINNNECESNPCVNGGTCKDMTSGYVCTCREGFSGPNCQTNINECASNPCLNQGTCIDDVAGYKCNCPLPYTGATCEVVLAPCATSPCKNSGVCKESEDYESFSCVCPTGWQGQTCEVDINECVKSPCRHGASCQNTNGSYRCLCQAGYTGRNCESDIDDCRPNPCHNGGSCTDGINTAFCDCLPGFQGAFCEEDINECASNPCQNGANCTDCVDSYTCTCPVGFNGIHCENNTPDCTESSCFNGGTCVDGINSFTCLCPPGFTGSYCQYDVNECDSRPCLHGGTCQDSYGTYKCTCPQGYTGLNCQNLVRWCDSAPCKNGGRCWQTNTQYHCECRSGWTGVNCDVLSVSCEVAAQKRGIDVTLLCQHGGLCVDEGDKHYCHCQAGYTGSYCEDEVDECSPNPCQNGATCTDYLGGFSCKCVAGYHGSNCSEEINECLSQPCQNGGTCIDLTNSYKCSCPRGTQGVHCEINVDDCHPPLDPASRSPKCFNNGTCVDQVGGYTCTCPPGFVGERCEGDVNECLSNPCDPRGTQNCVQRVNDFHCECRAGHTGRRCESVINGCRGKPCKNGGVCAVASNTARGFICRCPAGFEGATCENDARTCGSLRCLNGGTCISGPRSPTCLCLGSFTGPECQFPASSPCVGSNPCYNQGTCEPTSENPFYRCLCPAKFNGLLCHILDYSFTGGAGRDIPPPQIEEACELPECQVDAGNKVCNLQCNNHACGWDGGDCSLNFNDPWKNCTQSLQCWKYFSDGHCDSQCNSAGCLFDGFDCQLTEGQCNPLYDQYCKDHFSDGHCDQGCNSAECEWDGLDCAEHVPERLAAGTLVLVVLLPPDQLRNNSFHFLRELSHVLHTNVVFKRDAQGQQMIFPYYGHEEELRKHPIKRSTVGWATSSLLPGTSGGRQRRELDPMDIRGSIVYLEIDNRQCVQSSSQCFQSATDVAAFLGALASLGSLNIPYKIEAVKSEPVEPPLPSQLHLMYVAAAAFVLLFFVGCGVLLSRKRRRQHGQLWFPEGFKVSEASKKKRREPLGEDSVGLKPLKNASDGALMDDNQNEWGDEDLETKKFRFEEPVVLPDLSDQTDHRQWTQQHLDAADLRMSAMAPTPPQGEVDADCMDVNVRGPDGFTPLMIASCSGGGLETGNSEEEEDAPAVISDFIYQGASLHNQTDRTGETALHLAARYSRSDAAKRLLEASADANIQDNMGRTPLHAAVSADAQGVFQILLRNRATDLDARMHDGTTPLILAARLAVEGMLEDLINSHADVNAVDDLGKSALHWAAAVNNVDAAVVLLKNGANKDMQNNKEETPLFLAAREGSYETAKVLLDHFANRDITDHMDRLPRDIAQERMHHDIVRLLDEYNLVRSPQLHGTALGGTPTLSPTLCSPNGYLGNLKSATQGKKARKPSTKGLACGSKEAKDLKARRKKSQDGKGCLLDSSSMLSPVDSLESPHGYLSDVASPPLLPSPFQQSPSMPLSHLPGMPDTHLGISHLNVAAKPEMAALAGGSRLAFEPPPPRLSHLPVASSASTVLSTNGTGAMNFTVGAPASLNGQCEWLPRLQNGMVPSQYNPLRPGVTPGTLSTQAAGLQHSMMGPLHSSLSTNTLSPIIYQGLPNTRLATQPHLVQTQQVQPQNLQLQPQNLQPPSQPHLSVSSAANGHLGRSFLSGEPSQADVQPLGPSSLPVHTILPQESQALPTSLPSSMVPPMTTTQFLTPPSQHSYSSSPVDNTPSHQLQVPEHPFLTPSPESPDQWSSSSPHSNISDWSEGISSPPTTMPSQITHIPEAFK

B1: MAGP-2: secreted glycoprotein (25 kDa); stably expressed in MB114 cells by bicistronic retroviral transduction, Myc-His tagged (protein)
chain: QRGDDVPETFTDDPNLVNDPSTDDTALADITPSTDDLAGDKNATAECRDEKFACTRLYSVHRPVRQCVHQSCFTSLRRMYIINNEICSRLVCKEHEAMKDELCRQMAGLPPRRLRRSNYFRLPPCENMNLQRPDGL
modifications: left off: small tags and cut ends
notes: secreted glycoprotein (25 kDa); stably expressed in MB114 cells by bicistronic retroviral transduction, Myc-His tagged
For B1, the “ability of Jagged-1 to induce Notch1 cleavage and NICD production” value is on record as “reduced significantly”.
